Data from patent US20210363245A1.
Where two headings read alike, the source gives them in different places.

Tests used:
Assay in all cases: cell-based or functional assay
CD19 [1] = molecular target: CD19 (UniProt P15391)
CD20 (human) [2] = molecular target: CD20 (human) (UniProt P11836)
CD19 [3] = molecular target: CD19 (UniProt P15391); remark: listed apart in the source
CD20 (human) [4] = molecular target: CD20 (human) (UniProt P11836); remark: listed apart in the source
CD19 [5] = molecular target: CD19 (UniProt P15391); remark: listed apart in the source
CD20 (human) [6] = molecular target: CD20 (human) (UniProt P11836); remark: listed apart in the source
CD19 [7] = molecular target: CD19 (UniProt P15391); remark: listed apart in the source
CD20 (human) [8] = molecular target: CD20 (human) (UniProt P11836); remark: listed apart in the source

Chain of UniProt P15391 (P15391 20-556 limits assumed): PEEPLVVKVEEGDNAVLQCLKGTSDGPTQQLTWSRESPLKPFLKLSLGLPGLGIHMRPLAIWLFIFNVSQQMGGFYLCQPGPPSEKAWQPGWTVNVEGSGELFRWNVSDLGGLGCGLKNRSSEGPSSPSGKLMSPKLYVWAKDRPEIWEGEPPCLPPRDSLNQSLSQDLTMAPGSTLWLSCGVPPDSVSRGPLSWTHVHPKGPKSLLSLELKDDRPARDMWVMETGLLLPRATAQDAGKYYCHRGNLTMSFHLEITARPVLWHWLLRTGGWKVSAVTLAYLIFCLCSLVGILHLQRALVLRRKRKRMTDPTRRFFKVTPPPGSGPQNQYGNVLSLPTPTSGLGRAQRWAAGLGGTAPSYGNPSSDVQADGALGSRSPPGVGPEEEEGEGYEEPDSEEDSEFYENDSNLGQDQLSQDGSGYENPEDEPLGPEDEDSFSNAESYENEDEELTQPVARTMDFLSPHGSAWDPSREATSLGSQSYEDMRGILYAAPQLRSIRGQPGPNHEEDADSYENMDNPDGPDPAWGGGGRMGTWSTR
Chain of UniProt P11836 (P11836 whole entry): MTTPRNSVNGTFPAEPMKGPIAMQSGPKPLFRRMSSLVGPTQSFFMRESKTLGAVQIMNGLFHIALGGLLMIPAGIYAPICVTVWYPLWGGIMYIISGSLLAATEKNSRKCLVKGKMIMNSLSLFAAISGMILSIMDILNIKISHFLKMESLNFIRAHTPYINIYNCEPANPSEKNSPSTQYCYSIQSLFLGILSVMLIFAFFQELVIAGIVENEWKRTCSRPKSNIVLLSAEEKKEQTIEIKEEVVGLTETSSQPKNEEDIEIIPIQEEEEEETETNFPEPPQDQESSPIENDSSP

C2B8-CD828Z
IFNγ release (ELISA), overnight co-culture with CD19-K562 (CD19 [1]): 1050 pg/mL | IL-2 release (ELISA), overnight co-culture with CD19-K562 (CD19 [1]): < 16 pg/mL | IFNγ release (ELISA), overnight co-culture with CD20-K562 (CD20 (human) [2]): 56700 pg/mL | IFNγ release (ELISA), overnight co-culture with Nalm6 (CD20 (human) [2]): 1290 pg/mL | IFNγ release (ELISA), overnight co-culture with ST486 (CD20 (human) [2]): 14300 pg/mL | IFNγ release (ELISA), overnight co-culture with Toledo (CD20 (human) [2]): 7770 pg/mL | IL-2 release (ELISA), overnight co-culture with CD20-K562 (CD20 (human) [2]): 4620 pg/mL | IL-2 release (ELISA), overnight co-culture with Nalm6 (CD20 (human) [2]): < 16 pg/mL | IL-2 release (ELISA), overnight co-culture with ST486 (CD20 (human) [2]): 215 pg/mL | IL-2 release (ELISA), overnight co-culture with Toledo (CD20 (human) [2]): 104 pg/mL | IFNγ release (ELISA), overnight co-culture with CD19-K562 (CD19 [3]): 55 pg/mL | IFNγ release (ELISA), overnight co-culture with CD20-K562 (CD20 (human) [4]): 36500 pg/mL | IFNγ release (ELISA), overnight co-culture with Nalm6 (CD20 (human) [4]): 800 pg/mL | IFNγ release (ELISA), overnight co-culture with ST486 (CD20 (human) [4]): 9070 pg/mL | IFNγ release (ELISA), overnight co-culture with Toledo (CD20 (human) [4]): 6590 pg/mL

Hu19-CD828Z
IFNγ release (ELISA), overnight co-culture with CD19-K562 (CD19 [1]): 21200 pg/mL | IFNγ release (ELISA), overnight co-culture with Nalm6 (CD19 [1]): 6940 pg/mL | IFNγ release (ELISA), overnight co-culture with ST486 (CD19 [1]): 745 pg/mL | IFNγ release (ELISA), overnight co-culture with SU-DHL-4 (CD19 [1]): 2280 pg/mL | IFNγ release (ELISA), overnight co-culture with Toledo (CD19 [1]): 4570 pg/mL | IL-2 release (ELISA), overnight co-culture with CD19-K562 (CD19 [1]): 616 pg/mL | IL-2 release (ELISA), overnight co-culture with Nalm6 (CD19 [1]): 111 pg/mL | IL-2 release (ELISA), overnight co-culture with ST486 (CD19 [1]): < 16 pg/mL | IL-2 release (ELISA), overnight co-culture with SU-DHL-4 (CD19 [1]): < 16 pg/mL | IL-2 release (ELISA), overnight co-culture with Toledo (CD19 [1]): 55 pg/mL | IFNγ release (ELISA), overnight co-culture with CD20-K562 (CD20 (human) [2]): 43 pg/mL | IL-2 release (ELISA), overnight co-culture with CD20-K562 (CD20 (human) [2]): < 16 pg/mL | IFNγ release (ELISA), overnight co-culture with CD19-K562 (CD19 [3]): 31900 pg/mL | IFNγ release (ELISA), overnight co-culture with Nalm6 (CD19 [3]): 5700 pg/mL | IFNγ release (ELISA), overnight co-culture with ST486 (CD19 [3]): 3610 pg/mL | IFNγ release (ELISA), overnight co-culture with SU-DHL-4 (CD19 [3]): 5190 pg/mL | IFNγ release (ELISA), overnight co-culture with Toledo (CD19 [3]): 6470 pg/mL | IFNγ release (ELISA), overnight co-culture with CD20-K562 (CD20 (human) [4]): 21 pg/mL | IFNγ release (ELISA), overnight co-culture with CD19-K562 (CD19 [5]): 13900 pg/mL | IFNγ release (ELISA), overnight co-culture with CD20-K562 (CD20 (human) [6]): 118 pg/mL | IFNγ release (ELISA), overnight co-culture with CD19-K562 (CD19 [7]): 13300 pg/mL | IFNγ release (ELISA), overnight co-culture with Nalm6 (CD19 [7]): 6520 pg/mL | IFNγ release (ELISA), overnight co-culture with ST486 (CD19 [7]): 1430 pg/mL | IFNγ release (ELISA), overnight co-culture with CD20-K562 (CD20 (human) [8]): 808 pg/mL

Human IgG (antibody)
IFNγ release by Hu1928-2.1.2BB T cells with ST486 CD19-/- cells, human IgG at 0 ug/ml (CD20 (human) [2]): 6490 pg/mL | IFNγ release by Hu1928-2.1.2BB T cells with ST486 CD19-/- cells, human IgG at 6.2 ug/ml (CD20 (human) [2]): 5840 pg/mL | IFNγ release by Hu1928-2.1.2BB T cells with ST486 CD19-/- cells, human IgG at 12.5 ug/ml (CD20 (human) [2]): 5590 pg/mL | IFNγ release by Hu1928-2.1.2BB T cells with ST486 CD19-/- cells, human IgG at 25 ug/ml (CD20 (human) [2]): 5470 pg/mL | IFNγ release by Hu1928-2.1.2BB T cells with ST486 CD19-/- cells, human IgG at 50 ug/ml (CD20 (human) [2]): 6510 pg/mL | IFNγ release by Hu1928-2.1.2BB T cells with ST486 CD19-/- cells, human IgG at 100 ug/ml (CD20 (human) [2]): 5920 pg/mL
